Experimental data reported in patent US20200239556A1 (BIOVERATIV USA, published 2020).

Legend:
human Factor Bb = biological target: T1, human Factor Bb (human, UniProt P00751 260-764); assay: direct ELISA screen of hybridoma clones on fBb
T1 construct: The protein in the assay was purified human Factor Bb; also called fBb

[1] = biological target: T2, full length human Complement Factor B (human, UniProt P00751 26-764); assay: ELISA, antigen coated on the plate, HRP goat anti-mouse detection
T2 construct: also called fB; FB
T2 sequence (P00751 26-764 limits assumed): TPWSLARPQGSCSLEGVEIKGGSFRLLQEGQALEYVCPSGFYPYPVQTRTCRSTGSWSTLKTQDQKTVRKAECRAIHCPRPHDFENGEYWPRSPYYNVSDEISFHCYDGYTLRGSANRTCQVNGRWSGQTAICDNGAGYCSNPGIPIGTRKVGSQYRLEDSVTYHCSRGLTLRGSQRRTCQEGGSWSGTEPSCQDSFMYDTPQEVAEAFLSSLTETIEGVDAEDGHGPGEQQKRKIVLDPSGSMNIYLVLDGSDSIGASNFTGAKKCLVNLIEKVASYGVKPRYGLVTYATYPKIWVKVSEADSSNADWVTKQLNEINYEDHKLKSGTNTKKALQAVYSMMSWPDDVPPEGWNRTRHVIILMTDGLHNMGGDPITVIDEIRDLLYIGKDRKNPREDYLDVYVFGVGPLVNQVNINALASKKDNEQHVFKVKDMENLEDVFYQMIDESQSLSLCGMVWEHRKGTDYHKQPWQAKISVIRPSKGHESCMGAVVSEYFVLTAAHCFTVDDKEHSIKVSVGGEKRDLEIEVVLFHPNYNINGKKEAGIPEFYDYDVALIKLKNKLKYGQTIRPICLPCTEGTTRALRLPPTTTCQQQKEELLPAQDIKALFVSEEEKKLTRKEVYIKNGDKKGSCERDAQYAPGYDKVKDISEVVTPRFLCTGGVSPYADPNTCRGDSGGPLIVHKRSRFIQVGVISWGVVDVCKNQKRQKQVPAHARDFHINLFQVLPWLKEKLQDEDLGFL

T1 sequence (P00751 260-764 limits assumed): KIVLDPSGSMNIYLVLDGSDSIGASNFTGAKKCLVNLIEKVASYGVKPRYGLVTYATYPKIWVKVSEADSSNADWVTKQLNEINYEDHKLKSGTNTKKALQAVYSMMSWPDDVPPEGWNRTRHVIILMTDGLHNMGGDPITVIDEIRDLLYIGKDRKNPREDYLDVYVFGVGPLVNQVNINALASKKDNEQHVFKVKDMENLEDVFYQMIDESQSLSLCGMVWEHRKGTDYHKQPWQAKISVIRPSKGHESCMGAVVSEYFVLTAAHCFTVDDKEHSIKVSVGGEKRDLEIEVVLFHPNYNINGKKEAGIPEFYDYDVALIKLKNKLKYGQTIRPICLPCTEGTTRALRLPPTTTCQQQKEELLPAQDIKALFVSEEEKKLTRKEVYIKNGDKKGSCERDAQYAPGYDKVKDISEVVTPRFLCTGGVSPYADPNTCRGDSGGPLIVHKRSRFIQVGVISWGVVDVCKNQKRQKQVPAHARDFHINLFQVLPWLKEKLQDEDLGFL

B1: anti-Factor B Ab (antibody, V domains shown)
VH: EVQLQQSGPELVKPGASVKMSCKASGYSFTDYLMNWVKQSHGKSLEWIGRINPYNGDAFYNQRFKGKATLTVDKSSSTAHMELRSLTSEDSALYYCARLENDYGFTYWGQGTLVTVSA
VL: DIVMTQAAFSNPVTLGTSASISCSSSKSLLHSNGITYLYWYLQRPGQSPQLLIYRMSNLASGVPDRFSGSGSGTDFTLRISRVEAEDVGVYYCAQMLERPWTFGGGTKLEIK
notes: Mouse monoclonal antibody purified from hybridoma supernatant (NZBW mice immunised with fBb); also called FBb Ab; anti-Factor B antibody
- binding result (human Factor Bb): binds
- binding result [1]: binds
